Laboratory results as given in the supplement of paper PMC9876800.

Test system: peptide library, one residue held at a place counted from the S/T acceptor
Experiment: relative phosphorylation of the sub-library (ratio to the mean residue at this position); higher = residue favoured
Summary of the method: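 Human or orthologue kinase constructs, purified and recombinant, were incubated under kinase-specific conditions in 384-well plates with biotinylated degenerate peptide sub-libraries. Each sub-library fixed one residue at one position around a central Ser/Thr. Incubations lasted 90 min with peptides at 50 μM and 50 μM ATP spiked with γ-32P-ATP, after which spots on streptavidin membranes were phosphorimaged and quantified by densitometry. Relative sub-library phosphorylation is a ratio to the mean residue at that position.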

Chain of PIM2, construct: Full length with a 14aa C-terminal extension from Gateway cloning, human (Q9P1W9 whole entry, looked up): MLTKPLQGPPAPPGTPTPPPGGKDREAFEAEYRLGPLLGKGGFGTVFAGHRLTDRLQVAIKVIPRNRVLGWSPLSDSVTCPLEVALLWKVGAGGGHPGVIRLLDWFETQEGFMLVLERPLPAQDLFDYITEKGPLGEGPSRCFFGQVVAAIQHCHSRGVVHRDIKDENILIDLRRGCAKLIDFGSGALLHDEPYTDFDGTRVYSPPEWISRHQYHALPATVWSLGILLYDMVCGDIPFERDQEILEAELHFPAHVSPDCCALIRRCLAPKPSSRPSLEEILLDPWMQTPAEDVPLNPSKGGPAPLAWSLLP
Chain of GRK1, construct: Full length, human (Q15835 whole entry, looked up): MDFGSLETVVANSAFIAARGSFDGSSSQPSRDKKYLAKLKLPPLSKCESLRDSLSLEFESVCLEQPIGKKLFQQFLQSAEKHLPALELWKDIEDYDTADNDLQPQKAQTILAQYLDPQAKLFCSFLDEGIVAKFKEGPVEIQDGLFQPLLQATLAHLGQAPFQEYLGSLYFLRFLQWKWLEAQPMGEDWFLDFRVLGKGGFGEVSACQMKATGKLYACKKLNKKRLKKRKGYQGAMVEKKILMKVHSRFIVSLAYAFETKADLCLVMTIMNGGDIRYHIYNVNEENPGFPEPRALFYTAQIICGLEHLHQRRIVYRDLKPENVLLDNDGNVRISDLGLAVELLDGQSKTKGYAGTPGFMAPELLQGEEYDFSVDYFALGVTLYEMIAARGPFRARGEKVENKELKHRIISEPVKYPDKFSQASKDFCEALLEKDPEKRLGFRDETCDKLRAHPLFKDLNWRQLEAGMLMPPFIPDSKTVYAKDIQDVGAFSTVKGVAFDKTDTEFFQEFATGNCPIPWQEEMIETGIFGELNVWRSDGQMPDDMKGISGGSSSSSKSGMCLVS

PIM2, construct: Full length with a 14aa C-terminal extension from Gateway cloning, human (from UniProt Q9P1W9)
relative phosphorylation
Settings | at +1 | at +2 | at +3 | at +4 | at -1 | at -2 | at -3 | at -4 | at -5
A fixed | 1.17 | 0.889 | 0.802 | 0.851 | 0.852 | 0.568 | 0.578 | 0.935 | 0.695
D fixed | 0.638 | 0.729 | 0.859 | 0.833 | 0.593 | 0.32 | 0.269 | 0.497 | 0.413
E fixed | 0.834 | 0.713 | 0.752 | 0.764 | 0.587 | 0.343 | 0.295 | 0.666 | 0.413
F fixed | 0.653 | 0.75 | 0.909 | 0.874 | 0.887 | 0.911 | 0.388 | 0.776 | 0.547
G fixed | 3.18 | 0.978 | 0.99 | 1.08 | 0.814 | 0.418 | 0.43 | 0.891 | 0.789
H fixed | 0.871 | 1.48 | 1.31 | 1.04 | 1.16 | 2.64 | 0.78 | 1.01 | 1.01
I fixed | 0.723 | 0.606 | 0.709 | 0.841 | 0.699 | 0.541 | 0.366 | 0.837 | 0.588
K fixed | 1.14 | 1.33 | 1.24 | 1.28 | 1.33 | 1.7 | 1.91 | 1.9 | 2.91
L fixed | 0.663 | 0.664 | 0.721 | 0.793 | 0.912 | 0.594 | 0.381 | 0.79 | 0.608
M fixed | 0.861 | 0.71 | 0.783 | 0.845 | 0.921 | 0.649 | 0.397 | 0.985 | 0.6
N fixed | 1.11 | 1.07 | 0.958 | 1.11 | 1.18 | 1.04 | 0.48 | 0.988 | 0.728
P fixed | 0.727 | 1.13 | 1.04 | 1.3 | 1.86 | 0.524 | 0.453 | 0.755 | 0.791
Q fixed | 1.04 | 1.02 | 1.1 | 1.05 | 0.875 | 0.787 | 0.591 | 0.948 | 0.807
R fixed | 1.34 | 2.57 | 2.27 | 1.62 | 1.55 | 3.21 | 8.41 | 2.6 | 4.14
V fixed | 0.765 | 0.65 | 0.695 | 0.793 | 0.871 | 0.571 | 0.405 | 0.906 | 0.642
W fixed | 0.626 | 0.867 | 0.955 | 1.05 | 0.701 | 1.07 | 0.475 | 0.738 | 0.576
Y fixed | 0.66 | 0.848 | 0.923 | 0.885 | 1.2 | 1.11 | 0.395 | 0.777 | 0.741
pThr fixed | 0.857 | 0.654 | 0.668 | 0.888 | 0.379 | 0.35 | 0.342 | 0.632 | 0.471
pTyr fixed | 0.608 | 0.69 | 0.846 | 0.748 | 0.862 | 0.62 | 0.325 | 0.545 | 0.522

PRKG1, construct: Full length, human (from UniProt Q13976)
relative phosphorylation
Settings | at +1 | at +2 | at +3 | at +4 | at -1 | at -2 | at -3 | at -4 | at -5
A fixed | 0.819 | 1.43 | 0.964 | 0.841 | 0.831 | 0.24 | 0.611 | 1.1 | 1.11
D fixed | 0.195 | 0.45 | 0.572 | 0.5 | 0.21 | 0.0553 | 0.075 | 0.315 | 0.381
E fixed | 0.236 | 0.242 | 0.458 | 0.419 | 0.193 | 0.0546 | 0.0892 | 0.395 | 0.517
F fixed | 1.29 | 1.16 | 1.23 | 1.13 | 1.05 | 0.201 | 0.447 | 0.986 | 1.08
G fixed | 0.479 | 0.901 | 1.06 | 1.07 | 0.416 | 0.248 | 0.684 | 0.878 | 1.06
H fixed | 1.2 | 1.62 | 1.49 | 1.31 | 1.25 | 0.518 | 1.48 | 1.3 | 1.24
I fixed | 1.73 | 1.25 | 1.02 | 1.19 | 0.958 | 0.168 | 0.262 | 0.75 | 0.82
K fixed | 0.623 | 0.642 | 0.669 | 0.715 | 1.42 | 5.12 | 2.17 | 1.53 | 1.43
L fixed | 1.45 | 0.936 | 1.07 | 1.22 | 1.33 | 0.166 | 0.239 | 0.996 | 0.779
M fixed | 1.56 | 1.03 | 1.26 | 1.22 | 1.43 | 0.171 | 0.351 | 1.31 | 0.877
N fixed | 0.589 | 0.94 | 0.909 | 1.15 | 0.787 | 0.264 | 0.329 | 0.891 | 0.905
P fixed | 0.177 | 0.576 | 0.743 | 1.35 | 0.718 | 0.13 | 0.421 | 0.58 | 0.8
Q fixed | 0.967 | 1.16 | 0.964 | 1.02 | 0.868 | 0.402 | 0.674 | 0.851 | 0.848
R fixed | 0.982 | 0.6 | 0.861 | 0.754 | 1.95 | 8.27 | 7.6 | 2.14 | 1.81
V fixed | 2.26 | 1.53 | 1.03 | 0.847 | 1.16 | 0.544 | 0.273 | 0.77 | 0.914
W fixed | 1.12 | 1.35 | 1.33 | 1.24 | 0.797 | 0.22 | 0.482 | 1.06 | 1.25
Y fixed | 1.33 | 1.2 | 1.38 | 1.02 | 1.64 | 0.23 | 0.82 | 1.15 | 1.19
pThr fixed | 0.343 | 0.228 | 0.412 | 0.444 | 0.174 | 0.142 | 0.214 | 0.542 | 0.627
pTyr fixed | 0.365 | 0.324 | 0.493 | 0.5 | 0.324 | 0.098 | 0.248 | 0.487 | 0.659

GRK1, construct: Full length, human (from UniProt Q15835)
relative phosphorylation
Settings | at +1 | at +2 | at +3 | at +4 | at -1 | at -2 | at -3 | at -4 | at -5
A fixed | 0.624 | 1.06 | 0.886 | 1.02 | 0.737 | 0.553 | 0.76 | 1.15 | 1.16
D fixed | 0.767 | 1.81 | 2.19 | 2.5 | 1.31 | 0.963 | 1.16 | 1.43 | 2.29
E fixed | 2.89 | 1.47 | 2.19 | 2.42 | 1.39 | 1.28 | 1.19 | 1.75 | 1.74
F fixed | 0.711 | 0.778 | 0.638 | 0.645 | 0.641 | 2.3 | 0.881 | 0.585 | 0.659
G fixed | 0.605 | 0.939 | 1.68 | 1.06 | 0.652 | 0.519 | 0.912 | 1.29 | 2.07
H fixed | 0.592 | 0.984 | 0.958 | 0.932 | 0.962 | 0.701 | 0.746 | 0.843 | 0.894
I fixed | 1.47 | 0.921 | 0.682 | 0.734 | 0.654 | 0.86 | 0.841 | 0.627 | 0.556
K fixed | 0.65 | 0.587 | 0.793 | 0.622 | 1.56 | 0.619 | 0.706 | 0.673 | 0.682
L fixed | 1.23 | 0.823 | 0.662 | 0.653 | 0.852 | 1.02 | 0.583 | 0.568 | 0.491
M fixed | 0.973 | 0.961 | 0.721 | 0.662 | 0.723 | 0.708 | 0.671 | 0.645 | 0.533
N fixed | 0.621 | 1.3 | 0.861 | 0.861 | 1.23 | 0.691 | 1.07 | 0.933 | 0.983
P fixed | 0.522 | 0.592 | 0.823 | 1.18 | 2.04 | 1.11 | 2.74 | 2.68 | 1.31
Q fixed | 1.11 | 1.06 | 0.956 | 0.82 | 0.932 | 0.65 | 0.966 | 0.897 | 0.708
R fixed | 0.605 | 0.682 | 0.633 | 0.544 | 0.993 | 1.02 | 1.07 | 0.813 | 0.678
V fixed | 2.36 | 1.03 | 0.703 | 0.8 | 0.811 | 0.66 | 0.956 | 0.777 | 0.638
W fixed | 0.575 | 0.917 | 0.874 | 0.841 | 0.566 | 0.74 | 0.62 | 0.673 | 0.799
Y fixed | 0.701 | 1.1 | 0.754 | 0.707 | 0.953 | 2.61 | 1.13 | 0.662 | 0.81
pThr fixed | 2.35 | 0.972 | 1.21 | 3.6 | 3.08 | 4.99 | 3.2 | 1.84 | 1.43
pTyr fixed | 3.09 | 2.14 | 1.38 | 2.98 | 1.92 | 1.75 | 1.76 | 1.46 | 1.13
